From article PMC3384305 (Nucleic Acids Research, 2012)
Read-outs that look alike come from different tables or passages of the source.

T1: NHTF (NHTF C-His) (UniProt Q7DDD9 1-106)
T1 sequence: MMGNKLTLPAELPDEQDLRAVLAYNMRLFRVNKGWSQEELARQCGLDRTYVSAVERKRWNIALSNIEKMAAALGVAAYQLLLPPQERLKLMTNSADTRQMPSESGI

B1: DMP19 (NMB0541), without any tag (natural protein, N. meningitidis MC58, UniProt Q9K0P4 1-165, looked up)
chain: MTALTLPEDIRQQEPSALLYTLVSAYLEHTAQTGDESLSCLSDDQHTLTAFCYLDSQVEEGGFVQLIASGYGEYIFRNPLADSLRRWKIKAVPKVLDKAKALYEQHGKTIETLADGGADIPSLRKQFPEFEEWDGAYYEAAEQDLPLLAEHIQSNWETFAHIGQA
B2: C-terminal His6-tagged NHTF transcription factor (natural protein, N. meningitidis MC58)
chain: T1 sequence
B3: NHTF 5'UTR fragment 3 (dsDNA)
DNA 1: CTTTTTTTTGGCTTTTATGTGAAGTAAAATCCGTAACAGC
DNA 2: GCTGTTACGGATTTTACTTCACATAAAAGCCAAAAAAAAG
B4: NHTF 5'UTR fragment 1 (dsDNA)
DNA 1: TGTTTCCCAATCTGTCTTGATTTTATCTCTTTCCTC
DNA 2: GAGGAAAGAGATAAAATCAAGACAGATTGGGAAACA
B5: NHTF 5'UTR fragment 2 (dsDNA)
DNA 1: TTGATGTGTGTGTGTTTGGGTGTGGCTGCCGCCACCC
DNA 2: GGGTGGCGGCAGCCACACCCAAACACACACACATCAA
B6: NHTF 5'UTR fragment 4 (dsDNA)
DNA 1: AAATGCTTAACTTTAACCATTTATCTGGAAGCAA
DNA 2: TTGCTTCCAGATAAATGGTTAAAGTTAAGCATTT
B7: Specific 25-mer (dsDNA)
DNA 1: TATGTGAAGTAAAATCCGTAACAGC
DNA 2: GCTGTTACGGATTTTACTTCACATA
B8: Nonspecific 25-mer (dsDNA)
DNA 1: ACCCCTTTTTTTTGGCTTTTATGTG
DNA 2: CACATAAAAGCCAAAAAAAAGGGGT
B9: Specific (mutant) 25-mer (dsDNA)
DNA 1: TACCCGAAGTAAAATCCGTAACAGC
DNA 2: GCTGTTACGGATTTTACTTCGGGTA

What was measured:
[1] = biological target: the molecule itself; experiment: SEC
[2] = biological target: the molecule itself; experiment: SEC; remark: listed apart in the source
[3] = biological target: T1, NHTF (NHTF C-His); experiment: EMSA
[4] = biological target: T1, NHTF (NHTF C-His); experiment: EMSA; remark: listed apart in the source

Binder	binding result [3]	other results
B1		stoichiometry N [1]: 2
B2		stoichiometry N [2]: 2
B3	binds	
B4	no binding	
B5	no binding	
B6	no binding	
B7	binds	
B8		binding result [4]: no binding
B9	no binding	
